The values that follow come from patent publication US20140057807A1 (UNIVERSITY OF CHICAGO, published 2014).

Where a chain is given by its changes, count along the chain named.

T1: human Abl SH2 domain (human, UniProt P00519 112-232, limits assumed)
T1 construct: domain: SH2 domain; poly-histidine tagged in selection; tag cleaved for SPR and crystals; also called Ab1SH2; SH2 domain of Abl kinase
T1 sequence (looked up): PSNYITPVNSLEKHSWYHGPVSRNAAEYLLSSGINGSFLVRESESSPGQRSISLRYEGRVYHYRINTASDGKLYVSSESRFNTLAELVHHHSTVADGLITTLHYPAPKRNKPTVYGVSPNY

B1: ySMB-6 (designed binder)
chain: VSSVPTKLEVVAATPTSLLISWDASSSSVSYYRITYGETGGNSPVQEFTVPSYSSTATISGLSPGVDYTITVYAYWEFEYGYWSYSPISINYRT
notes: variable loops only; library YSGW
B2: ySMB-7 (designed binder)
chain: B1 chain with S52G, Y53S, W76Q, F78W, E79S, Y82W, W83S, Y85E
notes: as for B1
B3: ySMB-2 (designed binder)
chain: B1 chain with S52G, Y53S, E77T, F78Y, Y80W, W83M, S84Y, Y85D
B4: ySMB-8 (designed binder)
chain: VSSVPTKLEVVAATPTSLLISWDAYVGYGSSVAYYRITYGETGGNSPVQEFTVPGSSSTATISGLSPGVDYTITVYAYYYEGDDLYSSMSPISINYRT
notes: as for B1
B5: ySMB-4 (designed binder)
chain: VSSVPTKLEVVAATPTSLLISWDAPWAYSQSVAYYRITYGETGGNSPVQEFTVPGSSSTATISGLSPGVDYTITVYAYYGTPWGEGWYSWSPISINYRT
notes: as for B1
B6: ySMB-5 (designed binder)
chain: VSSVPTKLEVVAATPTSLLISWDAPANSVSYYRITYGETGGNSPVQEFTVPGSSSTATISGLSPGVDYTITVYAYEWYGWGWTYSPISINYRT
notes: as for B1
B7: ySMB-17 (designed binder)
chain: VSSVPTKLEVVAATPTSLLISWDASSSSVSYYRITYGETGGNSPVQEFTVPGSSSTATISGLSPGVDYTITVYAYIQYYDLYYASPISINYRT
notes: as for B1
B8: ySMB-20 (designed binder)
chain: VSSVPTKLEVVAATPTSLLISWDAGYYMNYYMVDYYRITYGETGGNSPVQEFTVPGSSSTATISGLSPGVDYTITVYAYWYDEYGQYWWSESPISINYRT
notes: as for B1
B9: SEQ ID NO 25 (designed binder)
chain: VSSVPTKLEVVAATPTSLLISWDAPAVTVDFYVITYGETGSFSPPQEFTVPGSKSTATISGLSPGVDYTITVYAMMWGWEYYDYNISPISINYRT
B10: SEQ ID NO 27 (designed binder)
chain: B9 chain
B11: SEQ ID NO 26 (designed binder)
chain: VSSVPTKLEVVAATPTSLLISWDAPAVTVDHYVITYGETGGVWYGYQEFTVPGSKSTATISGLSPGVDYTITVYAMTSYFQEYWSPISINYRT
B12: GG3 (designed binder)
chain: VSSVPTKLEVVAATPTSLLISWDAPAVTVVHYVITYGETGGNSPVQEFTVPGSKSTATISGLSPGVDYTITVYALLSSSHWVYESPISINYRT
B13: SEQ ID NO 85 (designed binder)
chain: VSSVPTKLEVVAATPTSLLISWDAPAVTVDLYVITYGETGGNSPVQEFTVPGSKSTATISGLSPGVDYTITVYAGWGNWELGYSWSSPISINYRT
B14: SEQ ID NO 81 (designed binder)
chain: VSSVPTKLEVVAATPTSLLISWDAPAVTVDLYLITYGETGGNSPVQEFKVPGSKSTATISGLSPGVDYTITVYAGSDYYYYYQGAYWSPISINYRT
B15: SEQ ID NO 82 (designed binder)
chain: VSSVPTKLEVVAATPTSLLISWDAPAVTVDFYVITYGETGGNSPVQEFTVPGSKSTATISGLSPGVDYTITVYANWAYSYRYSPISINYRT
B16: SEQ ID NO 83 (designed binder)
chain: B15 chain with D30F, F31Y, T49E, W76Y, A77P, R81M
B17: SEQ ID NO 84 (designed binder)
chain: B15 chain with F31Y, V33L, N75W, W76D, A77P, S79W, Y80D, R81V, Y82M
B18: ySMB-69 (designed binder)
chain: B1 chain with S52G, Y53S, W76Y, E77S, F78T, E79Y, Y80W, G81Y, Y82D, Y85G
notes: as for B1
B19: ySMB-74 (designed binder)
chain: B1 chain with S52G, Y53S, W76Y, E77Y, E79Y, Y80D, G81Y, Y82W, W83M, S84A
notes: as for B1
B20: ySMB-71 (designed binder)
chain: B1 chain with S52G, Y53S, W76Y, E77V, F78G, E79D, Y80G, G81Y, Y85E
notes: as for B1
B21: ySMB-90 (designed binder)
chain: B1 chain with S52G, Y53S, W76Y, E77Y, F78S, E79Y, G81Y, Y82S, W83Y
notes: variable loops only; library YS
B22: ySMB-67 (designed binder)
chain: VSSVPTKLEVVAATPTSLLISWDAGSFGFHDPVYYYRITYGETGGNSPVQEFTVPGSSSTATISGLSPGVDYTITVYAYYQYMDYYYSYSPISINYRT
notes: as for B1
B23: ySMB-64 (designed binder)
chain: VSSVPTKLEVVAATPTSLLISWDASQFSGVSYYRITYGETGGNSPVQEFTVPGSYSTATISGLSPGVDYTITVYAYYHEHWGYYSYSPISINYRT
notes: as for B1
B24: ySMB-91 (designed binder)
chain: VSSVPTKLEVVAATPTSLLISWDASYSSSSVSYYRITYGETGGNSPVQEFTVPGSSSTATISGLSPGVDYTITVYAYYYSYYYYYSYSPISINYRT
notes: as for B21
B25: Clone# 1 (ySUMO Monobodies) (designed binder)
chain: VSSVPTKLEVVAATPTSLLISWDASSSSVSYYRITYGETGGNSPVQEFTVPGSSSTATISGLSPGVDYTITVYAYYSYYDIYYAVSPSSINYRT
notes: recovered against ySUMO from the SUMO-targeted library
B26: Clone# 4 (ySUMO Monobodies) (designed binder)
chain: B25 chain with Y78D, Y79D, D80F, I81L, Y82D, Y83F, V85F
notes: as for B25
B27: Clone# 3 (ySUMO Monobodies) (designed binder)
chain: B25 chain with Y73F, Y78E, Y79E, D80F, I81F, Y82D, V85Y
notes: as for B25
B28: Clone# 5 (ySUMO Monobodies) (designed binder)
chain: B25 chain with D80N, Y82F, Y83F, V85D
notes: as for B25
B29: Clone# 2 (ySUMO Monobodies) (designed binder)
chain: B25 chain with Y78E, Y79E, D80F, I81F, Y82D
notes: as for B25
B30: ySMB-ST1 (designed binder)
chain: B25 chain
B31: ySMB-ST5 (designed binder)
chain: B25 chain with D80N, Y82F, Y83F, V85D
B32: ySMB-ST4 (designed binder)
chain: B25 chain with Y78D, Y79D, D80F, I81L, Y82D, Y83F, V85F
B33: ySMB-ST2 (designed binder)
chain: B25 chain with Y78E, Y79E, D80F, I81F, Y82D
B34: ySMB-ST3 (designed binder)
chain: B25 chain with Y73F, Y78E, Y79E, D80F, I81F, Y82D, V85Y

The first experiment deals with T2, yeast small ubiquitin-like modifier protein (yeast, UniProt Q12306 3-98 = SUMO).
T2 construct: GST fusion in most phage ELISAs, His-tagged or tag-cleaved elsewhere; also called ySUMO; yeast SUMO
T2 sequence (Q12306 3-98 limits assumed): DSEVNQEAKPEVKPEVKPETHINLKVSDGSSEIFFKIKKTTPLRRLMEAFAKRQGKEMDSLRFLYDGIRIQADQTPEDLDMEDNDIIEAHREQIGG
Put plainly: SPR. The protocol:
(§1) Cradle molecules purified as described above were immobilized via His-tag to an NTA surface using a Biacore™ 2000 instrument so that the theoretical maximum response (Rₘₐₓ) from target binding was 100-200 RU. Target protein at varying concentrations was then flowed over the surface at a flow rate of 30 μL/min and the binding signal recorded. Fitting of kinetic traces was carried out using the BIAevaluation software. For equilibrium experiments, the equilibrium binding response was recorded for multiple target concentrations and fit to a simple 1:1 saturation binding curve.
In turn, B1 displayed a dissociation constant (Kd) of 0.166 µM.

Molecule B2 registered an equilibrium dissociation constant (Kd) of 0.8 µM.

As to B3, the Kd is 0.045 µM.

Turning to B4, the Kd worked out at 0.35 µM.

In turn, B5 had a Kd of 0.21 µM.

For the molecule B6, the Kd is 0.1 µM.

A further experiment concerns the target T2, yeast small ubiquitin-like modifier …. Put plainly: SPR; column 'Estimated Kd (nM)'. The gist of the method:
(§2)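 Purified His-tagged molecules were captured on an NTA surface of a Biacore 2000 to reach a theoretical maximum target response of 100-200 RU, and target at varying concentrations was flowed at 30 μL/min. Estimated Kd values come from surface plasmon resonance binding signals, analysed either by kinetic fitting in BIAevaluation software or by fitting equilibrium responses to a saturation binding curve with 1:1 binding.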
As for B1, the Kd was 0.166 µM.

In the case of B2, the dissociation constant Kd was 0.8 µM.

Take B3: the Kd was 0.045 µM.

Take B7: the Kd is 0.04 µM.

As to B4, the dissociation constant (Kd) was 0.35 µM.

With B5, the Kd was 0.21 µM.

Regarding B8, the dissociation constant Kd is 0.066 µM.

B6: the Kd is 0.1 µM.

For the next experiment, the target named is human ubiquitin (human, UniProt P0CG48 1-76). Put plainly: phage display selection hit, BL1 library.
For B9, the binding result was “binds”.

Turning to B10, the binding result is reported as “binds”.

For the molecule B11, the binding result is listed as “binds”.

The target in the next experiment is T1, human Abl SH2 domain. Put plainly: phage display selection hit, BL2 library.
For the molecule B12, the binding result is “binds”.

Regarding B13, the binding result is “binds”.

Take B14: the binding result is “binds”.

As to B15, the binding result is reported as “binds”.

Regarding B16, the binding result is given as “binds”.

B17: the binding result is “binds”.

The next experiment concerns the target T2, yeast small ubiquitin-like modifier …. Put plainly: SPR; column 'Estimated Kd (nM)' [Continued]. The gist of the method:
as §2
B18: the Kd is 0.138 µM.

Turning to B19, the equilibrium dissociation constant (Kd) is 0.544 µM.

Consider B20, for which the dissociation constant (Kd) is 0.23 µM.

For the molecule B21, the Kd is 0.32 µM.

Regarding B22, the dissociation constant (Kd) is 1 µM.

Turning to B23, the equilibrium dissociation constant (Kd) was 0.28 µM.

With B24, the dissociation constant Kd is 1 µM.

The target is the same in a further experiment. The experiment in a line: SPR, fit of the traces to a 1:1 binding model [panel D]. The protocol: as §1
The molecule B3 came in with a koff of 0.04 s⁻¹ and a kon of 970000 M⁻¹ s⁻¹.

The next experiment shares this target. The experiment in a line: SPR (monobody on the chip via His-tag, target flowed); estimated Kd. The protocol:
as §1
Consider B25, for which the Kd is 0.039 µM.

Turning to B26, the Kd was 3.3 µM.

Take B27: the dissociation constant Kd was 0.435 µM.

With B28, the Kd is 0.112 µM.

B29: the Kd was 0.194 µM.

The target is the same in the next experiment. The experiment in a line: SPR (Biacore 2000), monobody immobilised via His-tag on NTA surface, ySUMO flowed over it. The protocol: as §1
For the molecule B30, the Kd came out at 0.039 µM.

Consider B31, for which the Kd was 0.112 µM.

Consider B32, for which the Kd came to 3.3 µM.

B33 registered a Kd of 0.194 µM.

With B34, the Kd amounted to 0.435 µM.
